EC50 data for eight molecules are collected here from patent US20220169708A1 (University of California, published 2022).

Residue numbers refer to the chain shown, from its start.

T1: cystic fibrosis transmembrane conductance regulator (CFTR) inhibitory factor (Cif) (Pseudomonas aeruginosa, UniProt A0A0H2ZD27 25-319)
T1 construct: also called CIF protein; Cif-protein
T1 sequence: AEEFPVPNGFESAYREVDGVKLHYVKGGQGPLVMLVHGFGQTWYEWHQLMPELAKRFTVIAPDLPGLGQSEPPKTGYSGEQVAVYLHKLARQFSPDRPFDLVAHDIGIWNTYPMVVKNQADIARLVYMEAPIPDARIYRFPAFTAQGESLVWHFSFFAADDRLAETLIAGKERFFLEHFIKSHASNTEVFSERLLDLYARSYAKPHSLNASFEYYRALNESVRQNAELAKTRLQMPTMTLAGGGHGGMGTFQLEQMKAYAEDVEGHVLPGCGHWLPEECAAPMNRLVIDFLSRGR

B1: VHH CLONE 213 (VHH)
VHH: EVQLVESVGGLVQPGGSLRLSCVASGNIGDIYTMGWYRQAPGKQRELVATVGDGGLTNFVDSVKGRFTISRDKSKGTVSLEMNSLKPEDTAVYYCNADVRIGPTGLRVYWGQGTQVTVSS
notes: The entry includes the C-terminal 6xHis and HA tags
B2: VHH CLONE 320 (VHH)
VHH: DVQLQASGGGLVQPGGSLRLSCATSTSVFSITTLGWYRQAPGKQRELVASMKRGGDTNYADSVKGRFTISRDNARNTVFLQMNNLTTEDTAVYYCNAAILAYTGAVTNYWGQGTQVTVSS
notes: The entry includes the C-terminal 6xHis and HA tags; also called nanobody 320
B3: VHH CLONE 108 (VHH)
VHH: EVQLVESGGGLVQPGGSLRLSCEATGNFDDRGIGWFRQAPGKEREGIACITTRGRTHYAESVEGRFTISTDIANNAVYLQMNSLKPEDTAVYYCAKAIRLTTDRTQCVAFPGVSWGRGTQVTVSS
notes: as for B1
B4: VHH CLONE 116 (VHH)
VHH: EVQLVESGGGLVQPGGSLRLSCTASGSILKIYTMDWYRQAPGKQRDLVATVSSRGDTDYTDSVKGRFTISRDDAKNTAYLQMSSLKPEDTAVYYCNFYIQSRTAPFNDYWGQGTQVTVSS
notes: as for B1
B5: VHH CLONE 302 (VHH)
VHH: B1 VHH with E1Q, Q3K, V5Q, V8G
notes: as for B1
B6: VHH CLONE 103 (VHH)
VHH: EVQLMESAGGLVRPGGSLRLSCVASGSIGDIYSMGWYRQAPGKQRELVATVGAGGLTDYGDSVLGRFTISRDKTKGTVSLEMNSLKPEDTAVYYCNADVSIGPTGLRVYWGQGTQVTVSS
notes: as for B1
B7: VHH CLONE 220 (VHH)
VHH: B1 VHH with V8G, D30N, T50A, D53A, G55E, F59Y, R100S
notes: The entry includes the C-terminal 6xHis and HA tags; also called nanobody 220
B8: VHH CLONE 205 (VHH)
VHH: DVQLQASGGGLVQPGGSLRLSCAATGSTDRIAFMGWYRQAPGKLRELVAGITSDGRTNYADDVDVSGRFTISRDSAKNMVYLQMNSLKPEDTAVYYCNADITLAMGGLRVYWGQGTQVTVSS
notes: as for B1

The first test has as its target T1, cystic fibrosis transmembrane …. Description: sandwich ELISA, upper graph: Cif in serial dilution (about 0.05-100 ng/mL) captured on anti-Cif pAb 0.3 ug/well, VHH 50 ng/well, anti-HA mAb detection; the concentration is that of Cif; sheet labels the value IC50, text calls it EC50. As to the method: (§1) 1). Immunoassay. A 96-well plate was coated with pAb at 3 μg/mL, 100 μL per well at RT for 1 h. The plate was blocked with 1% skimmed milk in PBST at RT for at least 2 h. Cif in PBS was loaded on the plate with increasing concentration and incubated for 1 h at RT. Following 5 times wash with PBST, VHH at 0.5 μg/mL in PBS, 100 μL per well (or 50 ng/well) was loaded. The plate was incubated for 1h at RT and then washed 5 times with wash buffer. Mouse anti-HA-HRP conjugate was added at 100 μl/well in a 1:3000 dilution as instructed by manufacturer. The plate was incubated for 1h at RT and washed 5 times. The plate was developed for 10 min with substrate solution added at 100 μl/well. The reaction was stopped by addition of 2M H₂SO₄ (50 μl/well) and absorbance was read at 450 nm. SigmaPlot 11.0 software was used for curve fitting and data analysis.
(§2) To evaluate produced recombinant antibodies, classical sandwich ELISA was performed using purified rabbit polyclonal anti-Cif antibodies as a capturing antibody (FIG. 3). […] Cif protein was loaded in a serial dilution range of 0.05-100 ng/mL and VHHs were added at 50 ng per well.
Background: An ELISA detects its analyte on a solid surface through an enzyme-linked reagent.
Regarding B1, the EC50 (usually the concentration giving half of the maximal effect) was determined as 0.011 µg/mL.

Molecule B2 displayed an EC50 of 0.0061 µg/mL.

B3 had an EC50 of 0.0098 µg/mL.

The next test has the same target. Put plainly: sandwich ELISA, lower graph: Cif in serial dilution (about 0.05-100 ng/mL) captured on anti-Cif pAb 0.3 ug/well, VHH 50 ng/well, anti-HA mAb detection; the concentration is that of Cif; sheet labels the value IC50, text calls it EC50. As to the method: as §1, §2
Molecule B4 showed a half-maximal effective concentration (EC50) of 0.0312 µg/mL.

Molecule B5 had an EC50 of 0.0172 µg/mL.

For the molecule B6, a half-maximal response (EC50) required 0.0168 µg/mL.

The molecule B7 returned an EC50 of 0.0211 µg/mL. This EC50 and that of the molecule before are within 1.5-fold of each other.

On to B8, for which the EC50 was 0.0207 µg/mL.
